Reference: the RNAGym collection of RNA variant scans (doi:10.7554/elife.80360)

B1: CPEB3 Ribozyme (parent)
chain: GGGGGCCACAGCAGAAGCGUUCACGUCGCGGCCCCUGUCAGAUUCUGGUGAAUCUGCGAAUUCUGCUGU

Variants of: B1
Experiment: self-cleavage, relative activity (ratio to wild type); higher = more cleavage; co-transcriptional

Variant	self-cleavage
C45U U55A	0.825
C45U U55C	0.755
C45U U55G	0.668
G47U U49G	0.989
G48A C54A	0.998
G48A C54G	1.02
G48A C54U	1.01
G47U U67C	1
U46G A52U	0.981
U46A A52C	1.01
C45U U61C	0.887
C45U U61A	0.919
U46G G47A	1.02
U46G G47C	1.02
U46G G47U	0.976
U46G U49C	1.04
U46G U49A	0.972
U46C G48U	1.02
U46C G48A	1.03
U46C G48C	1.02
U46A G47U	0.991
U46A G47A	1.01
U46A G65U	0.926
C45U G65C	0.719

Variant	self-cleavage
C45U G65U	0.813
G48A C66G	0.942
G48A C66U	0.99
G48A C66A	0.877
U46G G58U	0.955
G48A A60U	0.516
G48A A60C	0.434
G48A A51C	1
G48A A51U	0.989
C45U G50C	1.02
C45U G50A	1.01
U46G U55A	0.899
U46G U55G	0.83
U46G U55C	0.936
C45U G47U	1.02
C45U G47A	1.03
U46G C63U	1.03
U46G C63A	0.869
U46G U61C	0.941
U46G U61A	0.958
U46G U61G	0.878
C45U G48A	0.992
C45U G48C	0.975
C45U G48U	1.01

Variant	self-cleavage
G47A U61C	0.887
G47A U61G	0.968
G47C	1
G47U	1
G47A	1
U46G G68C	1.04
U46G G68U	0.971
G47U C54A	0.987
G47U C54U	1.05
U46G A60U	0.413
U46G A60G	0.952
U46G A60C	0.413
G47C G65A	0.963
G47C G65C	0.726
G47C G65U	0.908
G48A C63A	0.932
G48A C63U	0.959
G48A C63G	0.898
C45U A51U	0.947
G47C A60U	0.562
G47C G68A	1
G47C G68C	1.02
G47C G68U	0.994
U46C A51U	0.994

Variant	self-cleavage
U46C A51G	0.988
G47A G58C	0.951
G47A G58A	0.96
U46A U62G	0.925
U46A U62C	0.895
U46C G58A	0.979
C45U U69A	1.05
C45U U69C	1.08
G47A G56A	1
G47A G56U	1.01
U46A A51C	0.99
U46A A51U	1.01
G47C U55C	0.943
U46C G56U	0.837
C45U U62A	0.908
G47U G56C	0.885
G47U G56A	0.966
U46G C54G	0.907
G47A C54A	0.961
G47A C54G	0.979
G47C U53G	0.911
G47C U53C	0.992
G47C U53A	0.967
U46C A60C	0.339

Variant	self-cleavage
U46C A60U	0.472
G47U G50A	1.01
G47U G50C	1
G48A G56A	0.992
G48A G56C	0.949
G47U U61A	0.984
G47U U61G	0.906
G47C C66G	0.91
G47C C66A	0.897
C45U C54A	0.681
G47C C54U	0.987
G47C C54G	0.959
U46A A59G	1.02
U46A A59C	0.802
U46A C66G	0.961
U46A C66A	0.924
U46A C66U	0.972
G47C U69C	1.06
C45U C57A	0.32
C45U C57G	0.319
G47C G50C	1.02
G47C G50U	0.998
U46C U61A	0.95
G47C U64A	0.979

Variant	self-cleavage
G47C U64G	0.938
G47C U67C	0.993
G47C U67G	1.06
U46C U69A	0.997
U46C U69C	1.06
U46C U69G	1.05
U46C G47C	1.02
U46C G47A	0.682
G47A U53A	1.02
G47A U53G	0.971
G47A U53C	0.978
U46C U67C	0.962
U46C U67A	0.938
U46C U67G	0.977
G47C G48A	0.988
G47A G48A	1.03
G47A G48C	1.03
U46A G48U	0.991
U46A G48A	1.01
U46A G48C	1.01
U46A U69A	0.991
U46A U69C	1.07
G47A U64C	0.974
G47A U64A	0.958

Variant	self-cleavage
U46C C66G	0.762
U46C C66A	0.763
G48A G65C	0.81
G48A G65A	0.992
G48A G58A	0.961
U46G C66A	0.786
U46G C66U	0.986
U46G C66G	0.956
G47U A59G	1
G47U A59C	0.832
U46A G56A	0.997
G47U U55G	0.937
G47U U55A	0.961
U46A G68A	1.02
U46A G68C	0.97
G48A A52U	0.996
G48A A52C	0.975
G48A A52G	0.989
U46C C63U	0.983
U46C C63G	0.796
U46C C63A	0.771
C45U G56C	0.694
C45U G56U	0.897
G47U U62G	0.903

Variant	self-cleavage
G47U U62C	0.912
U46G G56C	0.65
U46G G56U	0.959
G47A U62A	0.976
G47A U62C	0.933
C45U U64G	0.854
C45U U67C	0.955
U46A G50A	0.974
U46A G50C	0.951
U46G G65C	0.681
G47C U61G	0.937
G47C U61A	0.97
U46C G50A	0.974
U46C G50C	1.04
C45U U49A	0.993
U46G G50U	0.962
U46G G50A	0.981
G47U C66G	0.914
G47U C66A	0.933
G47U C66U	1.02
U46A U67C	1.01
U46A U67G	1.03
G47U U53G	0.991
G47U U53C	1.02

Variant	self-cleavage
U46C C54A	0.772
U46C C54G	0.891
U46A C63U	1.02
U46C G65C	0.615
U46C G65A	0.893
G47A G65U	0.858
G47A G65C	0.79
G47C A59U	0.863
G47C A59G	0.958
G47C A59C	0.837
G47C C63U	1.01
U46G U67A	0.99
U46G U67G	0.995
U46C C57A	0.373
G48A G50C	0.974
G48A G50U	0.988
G48A G50A	0.985
G47U U64G	0.913
G47A A60U	0.475
G47C G58A	0.939
G47C G58C	0.977
G47C G58U	0.997
U46G U64C	0.927
U46G U64A	0.916

Variant	self-cleavage
U46G U64G	0.885
G47A G68U	1.01
G47A G68A	1.01
G47U G65C	0.736
G47U G58U	0.994
G47U G58A	0.946
G47U G58C	0.963
U46A U64G	0.964
U46A U64A	0.955
G47A U69G	1.05
G47A U69A	1.03
U46A C57U	0.309
U46A C57G	0.31
G47C G56C	0.92
G47C G56U	1.02
G47A A51G	1.02
G47A A51U	0.953
C45U C66A	0.843
C45U C66G	0.87
G48A A59C	0.83
G48A A59G	1.05
G48A A59U	0.817
U46A U61C	0.86
U46A U61G	0.902

Variant	self-cleavage
C45U G68C	1
C45U G68U	1.01
G47C U62G	0.901
G47C U62A	1
G47U A51U	1.01
G47U A51C	0.997
G47A U55C	0.966
G47A U55G	0.91
G47U A60U	0.552
G47U A60C	0.386
G47U A60G	0.912
U46C U49C	0.913
U46C U49A	0.996
U46C A59U	0.847
U46C A59G	1.03
U46A G58A	0.93
U46A G58C	0.961
U46A G58U	0.988
G47U A52U	0.973
U46G U62A	0.948
U46G U62G	0.877
U46G U62C	0.993
U46C U53G	0.872
U46G A51C	0.949

Variant	self-cleavage
U46G A51G	0.618
U46G A51U	1
C45U A59G	0.98
C45U A59U	0.837
G47A U67C	0.976
G47A U67G	1.06
G47A C63A	0.898
U46A A60G	0.91
U46A A60C	0.346
G47A G50U	1.01
G47A U49G	0.994
G47C C57A	0.32
G47C C57U	0.344
G47U U69C	1.06
G47U U69G	1.05
G47U U69A	1.02
G47C A51C	1.04
U46C U55C	0.701
U46C U55G	0.768
U46C U55A	0.773
C45U U53C	0.834
G47A C57U	0.321
G47A C57A	0.347
U46G U69C	1.07

Variant	self-cleavage
U46G C57G	0.303
U46G C57U	0.391
U46G C57A	0.354
G47C A52U	1.05
G47C A52C	0.946
G47C A52G	1
C45U C63A	0.838
G47A C66G	0.953
G47A C66U	0.959
G48A	1
G47U G48C	1.02
U46G A59G	0.965
U46G A59U	0.842
U46C U62A	0.943
U46C U62G	0.916
U46C U62C	0.895
G48A C57U	0.374
G48A C57G	0.31
U46G U53C	0.978
U46G U53G	0.918
U46G U53A	1.01
G47C U49C	0.981
G47C U49G	1
G47A A59U	0.872

Variant	self-cleavage
C45U A60C	0.33
C45U A60U	0.469
C45U A60G	0.9
U46C U64C	0.936
U46C U64G	0.852
U46C U64A	0.877
U46C G68A	1
U46C G68C	0.985
G47A A52G	0.969
U46A U49A	1.02
U46C A52C	0.943
U46C A52G	1
U46A C54G	0.971
U46A C54A	0.933
C45U A52G	1.01
C45U A52C	0.988
C45U A52U	0.972
U46A U55A	0.964
U46A U55C	0.871
G47U C57G	0.311
G47U C57A	0.396
G47U C57U	0.378
